Measurements published in patent US20210246166A1 (Bayer, published 2021).
Numbered stars: 1 amine (or outer) side, 2 acyl side, 3 side chain; on linkers, the order of the positions; unused ones are H or OH. Bridge positions count the residues as written; N and C are the ends. Square brackets hold non-standard residues; d marks the D form. Ends that are not written are not given here. (S)‑4‑Piperazine‑2‑carboxylic acid = (S)-4-piperazine-2-carboxylic acid; 4‑Aminomethylphenylacetic acid = O=C(Cc1ccc(CN[*:1])cc1)[*:2]; NHCH2(1,3-C6H4)CH2CO = O=C(Cc1cccc(CN[*:1])c1)[*:2]; Phe(3-COOH) = N[C@@H](Cc1cccc(C(=O)O)c1)C(=O)O; Oic = O=C(O)[C@@H]1C[C@@H]2CCCC[C@@H]2N1; PEG6 = NCCOCCOCCOCCOCCOCCOCCC(=O)O; tBuAla = CC(C)(C)C[C@H](N)C(=O)O; Pen = CC(C)(S)[C@H](N)C(=O)O; PEG3 = NCCOCCOCCOCCC(=O)O; Orn = NCCC[C@H](N)C(=O)O; Dap = NC[C@H](N)C(=O)O; dβPro = D-beta-Proline; Ahx = NCCCCCC(=O)O; Sar = CNCC(=O)O

T1: recombinant rat MASP1 active protease (amino acids 302-704, C-terminal His Tag) (rat, UniProt Q8CHN8 302-704)
T1 sequence: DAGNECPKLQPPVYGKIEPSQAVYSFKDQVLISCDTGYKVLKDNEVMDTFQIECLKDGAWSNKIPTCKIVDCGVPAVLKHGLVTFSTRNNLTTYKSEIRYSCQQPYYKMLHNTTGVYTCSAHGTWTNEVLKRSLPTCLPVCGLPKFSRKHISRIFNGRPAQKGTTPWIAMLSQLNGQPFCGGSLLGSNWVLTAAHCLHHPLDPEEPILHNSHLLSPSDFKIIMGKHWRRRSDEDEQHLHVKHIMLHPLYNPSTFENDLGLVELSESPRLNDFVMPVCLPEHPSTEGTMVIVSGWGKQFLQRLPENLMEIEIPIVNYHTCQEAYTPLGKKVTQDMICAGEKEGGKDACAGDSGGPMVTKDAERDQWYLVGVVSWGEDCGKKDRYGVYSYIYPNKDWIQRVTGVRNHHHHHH

B1: Example 465: ((N-Me)G)-IC+SRSLP-(Oic)-I-(Pen)+IPD-(Ahx)-OH (peptide)
peptide: [Sar]ICSRSLP[Oic]I[Pen]IPD[Ahx]-OH
modifications: disulfide 3-11; N-terminus assumed
SMILES: CC[C@H](C)[C@H](NC(=O)CNC)C(=O)N[C@H]1CSSC(C)(C)[C@@H](C(=O)N[C@H](C(=O)N2CCC[C@H]2C(=O)N[C@@H](CC(=O)O)C(=O)NCCCCCC(=O)O)[C@@H](C)CC)NC(=O)[C@H]([C@@H](C)CC)NC(=O)[C@@H]2C[C@@H]3CCCC[C@@H]3N2C(=O)[C@@H]2CCCN2C(=O)[C@H](CC(C)C)NC(=O)[C@H](CO)NC(=O)[C@H](CCCNC(=N)N)NC(=O)[C@H](CO)NC1=O
B2: Example 480: (beta-P)-IC+SRS-((tBu)A)-PPI-(Pen)+IPD-OH (peptide)
peptide: XICSRS[tBuAla]PPI[Pen]IPD-OH
modifications: disulfide 3-11; not fully specified (residue 1); printed as (beta-P)-IC + SRS-((tBu)A)-PPI-(Pen) + IPD-OH
B3: Example 472: ((N-Me)G)-IC+SRSLP-(Oic)-I-(Pen)+IP-(PEG5(22 atoms))-OH (peptide)
peptide: [Sar]ICSRSLP[Oic]I[Pen]IP[PEG6]-OH
modifications: disulfide 3-11; N-terminus assumed
SMILES: CC[C@H](C)[C@H](NC(=O)CNC)C(=O)N[C@H]1CSSC(C)(C)[C@@H](C(=O)N[C@H](C(=O)N2CCC[C@H]2C(=O)NCCOCCOCCOCCOCCOCCOCCC(=O)O)[C@@H](C)CC)NC(=O)[C@H]([C@@H](C)CC)NC(=O)[C@@H]2C[C@@H]3CCCC[C@@H]3N2C(=O)[C@@H]2CCCN2C(=O)[C@H](CC(C)C)NC(=O)[C@H](CO)NC(=O)[C@H](CCCNC(=N)N)NC(=O)[C@H](CO)NC1=O
B4: Example 469: (Orn)-IC+SRSLP-(Oic)-I-(Pen)+IPD-OH (peptide)
peptide: [Orn]ICSRSLP[Oic]I[Pen]IPD-OH
modifications: disulfide 3-11; N-terminus assumed
SMILES: CC[C@H](C)[C@H](NC(=O)[C@@H](N)CCCN)C(=O)N[C@H]1CSSC(C)(C)[C@@H](C(=O)N[C@H](C(=O)N2CCC[C@H]2C(=O)N[C@@H](CC(=O)O)C(=O)O)[C@@H](C)CC)NC(=O)[C@H]([C@@H](C)CC)NC(=O)[C@@H]2C[C@@H]3CCCC[C@@H]3N2C(=O)[C@@H]2CCCN2C(=O)[C@H](CC(C)C)NC(=O)[C@H](CO)NC(=O)[C@H](CCCNC(=N)N)NC(=O)[C@H](CO)NC1=O
B5: Example 484: ((N-Me)G)-IC+SRSLP-(Oic)-I-(Pen)+IPD-(PEG2(13 atoms))-OH (peptide)
peptide: [Sar]ICSRSLP[Oic]I[Pen]IPD[PEG3]-OH
modifications: disulfide 3-11; N-terminus assumed
SMILES: CC[C@H](C)[C@H](NC(=O)CNC)C(=O)N[C@H]1CSSC(C)(C)[C@@H](C(=O)N[C@H](C(=O)N2CCC[C@H]2C(=O)N[C@@H](CC(=O)O)C(=O)NCCOCCOCCOCCC(=O)O)[C@@H](C)CC)NC(=O)[C@H]([C@@H](C)CC)NC(=O)[C@@H]2C[C@@H]3CCCC[C@@H]3N2C(=O)[C@@H]2CCCN2C(=O)[C@H](CC(C)C)NC(=O)[C@H](CO)NC(=O)[C@H](CCCNC(=N)N)NC(=O)[C@H](CO)NC1=O
B6: Example 483: ((N-Me)G)-IC+SRSLP-(Oic)-I-(Pen)+IP-((3-Carboxy)F)-OH (peptide)
peptide: [Sar]ICSRSLP[Oic]I[Pen]IP[Phe(3-COOH)]-OH
modifications: disulfide 3-11; N-terminus assumed
SMILES: CC[C@H](C)[C@H](NC(=O)CNC)C(=O)N[C@H]1CSSC(C)(C)[C@@H](C(=O)N[C@H](C(=O)N2CCC[C@H]2C(=O)N[C@@H](Cc2cccc(C(=O)O)c2)C(=O)O)[C@@H](C)CC)NC(=O)[C@H]([C@@H](C)CC)NC(=O)[C@@H]2C[C@@H]3CCCC[C@@H]3N2C(=O)[C@@H]2CCCN2C(=O)[C@H](CC(C)C)NC(=O)[C@H](CO)NC(=O)[C@H](CCCNC(=N)N)NC(=O)[C@H](CO)NC1=O
B7: Example 477: ((N-Me)G)-IC+SRSLP-(Oic)-I-(Pen)+IP-(3-Aminomethylphenylacetic acid)-OH (peptide)
peptide: [Sar]ICSRSLP[Oic]I[Pen]IP[NHCH2(1,3-C6H4)CH2CO]-OH
modifications: disulfide 3-11; N-terminus assumed
SMILES: CC[C@H](C)[C@H](NC(=O)CNC)C(=O)N[C@H]1CSSC(C)(C)[C@@H](C(=O)N[C@H](C(=O)N2CCC[C@H]2C(=O)NCc2cccc(CC(=O)O)c2)[C@@H](C)CC)NC(=O)[C@H]([C@@H](C)CC)NC(=O)[C@@H]2C[C@@H]3CCCC[C@@H]3N2C(=O)[C@@H]2CCCN2C(=O)[C@H](CC(C)C)NC(=O)[C@H](CO)NC(=O)[C@H](CCCNC(=N)N)NC(=O)[C@H](CO)NC1=O
B8: Example 478: aIC+SRSLP-(Oic)-I-(Pen)-+IP-(3-Aminomethylphenylacetic acid)-OH (peptide)
peptide: [dA]ICSRSLP[Oic]I[Pen]IP[NHCH2(1,3-C6H4)CH2CO]-OH
modifications: disulfide 3-11; N-terminus assumed
SMILES: CC[C@H](C)[C@H](NC(=O)[C@@H](C)N)C(=O)N[C@H]1CSSC(C)(C)[C@@H](C(=O)N[C@H](C(=O)N2CCC[C@H]2C(=O)NCc2cccc(CC(=O)O)c2)[C@@H](C)CC)NC(=O)[C@H]([C@@H](C)CC)NC(=O)[C@@H]2C[C@@H]3CCCC[C@@H]3N2C(=O)[C@@H]2CCCN2C(=O)[C@H](CC(C)C)NC(=O)[C@H](CO)NC(=O)[C@H](CCCNC(=N)N)NC(=O)[C@H](CO)NC1=O
B9: Example 476: ((N-Me)G)-IC+SRSLP-(Oic)-I-(Pen)+IP-(4-Aminomethylphenylacetic acid)-OH (peptide)
peptide: [Sar]ICSRSLP[Oic]I[Pen]IP[4‑Aminomethylphenylacetic acid]-OH
modifications: disulfide 3-11; N-terminus assumed
SMILES: CC[C@H](C)[C@H](NC(=O)CNC)C(=O)N[C@H]1CSSC(C)(C)[C@@H](C(=O)N[C@H](C(=O)N2CCC[C@H]2C(=O)NCc2ccc(CC(=O)O)cc2)[C@@H](C)CC)NC(=O)[C@H]([C@@H](C)CC)NC(=O)[C@@H]2C[C@@H]3CCCC[C@@H]3N2C(=O)[C@@H]2CCCN2C(=O)[C@H](CC(C)C)NC(=O)[C@H](CO)NC(=O)[C@H](CCCNC(=N)N)NC(=O)[C@H](CO)NC1=O
B10: Example 482: ((N-Me)G)-IC+SRS-((tBu)A)-PPI-(Pen)+IP-((3-Carboxy)F)-OH (peptide)
peptide: [Sar]ICSRS[tBuAla]PPI[Pen]IP[Phe(3-COOH)]-OH
modifications: disulfide 3-11; N-terminus assumed
SMILES: CC[C@H](C)[C@H](NC(=O)CNC)C(=O)N[C@H]1CSSC(C)(C)[C@@H](C(=O)N[C@H](C(=O)N2CCC[C@H]2C(=O)N[C@@H](Cc2cccc(C(=O)O)c2)C(=O)O)[C@@H](C)CC)NC(=O)[C@H]([C@@H](C)CC)NC(=O)[C@@H]2CCCN2C(=O)[C@@H]2CCCN2C(=O)[C@H](CC(C)(C)C)NC(=O)[C@H](CO)NC(=O)[C@H](CCCNC(=N)N)NC(=O)[C@H](CO)NC1=O
B11: Example 466: ((N-Me)G)-IC+SRSLP-(Oic)-I-(Pen)+IPDD-OH (peptide)
peptide: [Sar]ICSRSLP[Oic]I[Pen]IPDD-OH
modifications: disulfide 3-11; N-terminus assumed
SMILES: CC[C@H](C)[C@H](NC(=O)CNC)C(=O)N[C@H]1CSSC(C)(C)[C@@H](C(=O)N[C@H](C(=O)N2CCC[C@H]2C(=O)N[C@@H](CC(=O)O)C(=O)N[C@@H](CC(=O)O)C(=O)O)[C@@H](C)CC)NC(=O)[C@H]([C@@H](C)CC)NC(=O)[C@@H]2C[C@@H]3CCCC[C@@H]3N2C(=O)[C@@H]2CCCN2C(=O)[C@H](CC(C)C)NC(=O)[C@H](CO)NC(=O)[C@H](CCCNC(=N)N)NC(=O)[C@H](CO)NC1=O

Tests used:
[1] = target: recombinant rat MASP2 active protease (amino acids 296-685, C-terminal His Tag) (rat, UniProt Q9JJS8 296-685); assay: cell-based or functional assay
Sequence of recombinant rat MASP2 active protease (amino acids 296-685, C-terminal His Tag) (Q9JJS8 other isoform, or with tags, fused parts or gaps limits assumed): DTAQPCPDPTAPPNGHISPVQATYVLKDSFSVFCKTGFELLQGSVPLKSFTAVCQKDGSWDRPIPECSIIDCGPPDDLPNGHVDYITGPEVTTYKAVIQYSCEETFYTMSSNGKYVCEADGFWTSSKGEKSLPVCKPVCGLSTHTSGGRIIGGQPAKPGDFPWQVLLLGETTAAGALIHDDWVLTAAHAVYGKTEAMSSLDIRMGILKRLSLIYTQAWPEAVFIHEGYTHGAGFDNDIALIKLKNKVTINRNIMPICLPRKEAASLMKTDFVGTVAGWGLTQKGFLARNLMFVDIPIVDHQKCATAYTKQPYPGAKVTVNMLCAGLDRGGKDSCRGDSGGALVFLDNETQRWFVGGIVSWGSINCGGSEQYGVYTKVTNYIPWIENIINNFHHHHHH

[2] = target: T1, recombinant rat MASP1 active protease …; assay: cell-based or functional assay

Binder	rat MASP2 IC50 [1] [nM]	rat MASP1 IC50 [2] [nM]
B1	140	72
[Sar]ICSRSLP[Oic]I[Pen]IP[Dap]-OH (disulfide 3-11; also: Dap at position 14 joined through its 3-amino group) [Example 467: ((N-Me)G)-IC+SRSLP-(Oic)-I-(Pen)+IP-(*Dap)-OH]	70	170
B2	41	24
[Sar]ICSRSLP[Oic]I[Pen]I[(S)‑4‑Piperazine‑2‑carboxylic acid]-OH (disulfide 3-11) [Example 474: ((N-Me))-GIC+SRSLP-(Oic)-I-(Pen)+I-((S)-4-Piperazine-2-carboxylic acid)-OH]	26	87
B3	49	100
[Sar]ICSRSLP[Oic]I[Pen]IPD[PEG4‑CH2CO2H(15atoms)]-OH (disulfide 3-11) [Example 471: ((N-Me)G)-IC+SRSLP-(Oic)-I-(Pen)+IPD-(PEG4-CH2CO2H (15 atoms))-OH]	71	78
[Piperidin‑4‑ylacetic acid]ICSRS[tBuAla]PPICIPD-OH (disulfide 3-11) [Example 475: (Piperidin-4-ylacetic acid)-IC+SRS-((tBu)A)-PPIC+IPD-OH]	25	250
B4	34	120
B5	88	63
B6	50	34
[dβPro]ICSRS[tBuAla]PPI[Pen]IPD-OH (disulfide 3-11) [Example 481: (beta-p)-IC+SRS-((tBu)A)-PPI-(Pen)+IPD-OH]	36	20
B7	123	154
B8	49	68
B9	61	53
B10	33	18
[Sar]ICSRSLP[Oic]I[Pen]IP[PEG4‑CH2CO2H(15atoms)]-OH (disulfide 3-11) [Example 470: ((N-Me)G)-IC+SRSLP-(Oic)-I-(Pen)+IP-(PEG4-CH2CO2H (15 atoms))-OH]	54	100
B11	72	17.6
